Assay [1] has as its target T1, Xenopus laevis StrepII-FANCD2.
T1 chain: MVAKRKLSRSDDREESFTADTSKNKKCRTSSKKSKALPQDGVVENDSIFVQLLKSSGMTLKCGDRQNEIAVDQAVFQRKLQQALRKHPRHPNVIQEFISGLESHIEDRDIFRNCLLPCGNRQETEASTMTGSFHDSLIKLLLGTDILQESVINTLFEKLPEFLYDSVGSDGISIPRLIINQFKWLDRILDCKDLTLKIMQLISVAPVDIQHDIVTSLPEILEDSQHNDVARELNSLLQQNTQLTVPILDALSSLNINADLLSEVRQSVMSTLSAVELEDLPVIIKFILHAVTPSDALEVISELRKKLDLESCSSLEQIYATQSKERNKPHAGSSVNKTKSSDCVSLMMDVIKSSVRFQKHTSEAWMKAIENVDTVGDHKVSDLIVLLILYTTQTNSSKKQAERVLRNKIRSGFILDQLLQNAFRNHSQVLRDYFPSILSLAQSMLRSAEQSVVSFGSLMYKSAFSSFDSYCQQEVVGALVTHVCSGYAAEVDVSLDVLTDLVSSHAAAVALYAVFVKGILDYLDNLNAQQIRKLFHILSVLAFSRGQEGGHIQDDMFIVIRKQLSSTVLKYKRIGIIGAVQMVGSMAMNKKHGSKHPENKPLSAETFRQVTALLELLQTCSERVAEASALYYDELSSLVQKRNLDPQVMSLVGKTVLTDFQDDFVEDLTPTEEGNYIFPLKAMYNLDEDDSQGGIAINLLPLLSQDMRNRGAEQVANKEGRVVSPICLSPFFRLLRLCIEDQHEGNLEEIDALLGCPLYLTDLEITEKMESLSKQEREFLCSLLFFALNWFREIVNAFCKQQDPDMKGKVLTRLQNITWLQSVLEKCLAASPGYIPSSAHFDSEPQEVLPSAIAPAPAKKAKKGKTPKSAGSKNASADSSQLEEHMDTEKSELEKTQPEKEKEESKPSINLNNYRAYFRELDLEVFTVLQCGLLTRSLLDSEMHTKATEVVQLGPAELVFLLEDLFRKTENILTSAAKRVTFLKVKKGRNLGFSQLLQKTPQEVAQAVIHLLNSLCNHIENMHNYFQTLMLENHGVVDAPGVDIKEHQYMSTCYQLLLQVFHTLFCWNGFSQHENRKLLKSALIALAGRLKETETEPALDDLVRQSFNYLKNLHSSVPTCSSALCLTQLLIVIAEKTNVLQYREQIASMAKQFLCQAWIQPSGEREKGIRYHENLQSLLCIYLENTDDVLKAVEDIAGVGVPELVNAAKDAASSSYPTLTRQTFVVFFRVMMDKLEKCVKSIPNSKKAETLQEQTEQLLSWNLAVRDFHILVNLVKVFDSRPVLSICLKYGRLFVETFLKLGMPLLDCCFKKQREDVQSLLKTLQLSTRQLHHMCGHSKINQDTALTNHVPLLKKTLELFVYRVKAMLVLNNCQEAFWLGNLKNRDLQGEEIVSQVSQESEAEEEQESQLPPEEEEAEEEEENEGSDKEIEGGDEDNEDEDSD
Put plainly: Biolayer interferometry (BLItz). The note with it: chain shown with the change; StrepII-FANCD2-loaded biosensors in 20 ng/mL solution; FANCI 62.5-1000 nM. A general note: In BLI a coated tip is dipped into the sample, and binding shifts an interference pattern.

Assay [2] deals with T2, Xenopus laevis StrepII-FANCD2 (Xenopus laevis).
T2 chain: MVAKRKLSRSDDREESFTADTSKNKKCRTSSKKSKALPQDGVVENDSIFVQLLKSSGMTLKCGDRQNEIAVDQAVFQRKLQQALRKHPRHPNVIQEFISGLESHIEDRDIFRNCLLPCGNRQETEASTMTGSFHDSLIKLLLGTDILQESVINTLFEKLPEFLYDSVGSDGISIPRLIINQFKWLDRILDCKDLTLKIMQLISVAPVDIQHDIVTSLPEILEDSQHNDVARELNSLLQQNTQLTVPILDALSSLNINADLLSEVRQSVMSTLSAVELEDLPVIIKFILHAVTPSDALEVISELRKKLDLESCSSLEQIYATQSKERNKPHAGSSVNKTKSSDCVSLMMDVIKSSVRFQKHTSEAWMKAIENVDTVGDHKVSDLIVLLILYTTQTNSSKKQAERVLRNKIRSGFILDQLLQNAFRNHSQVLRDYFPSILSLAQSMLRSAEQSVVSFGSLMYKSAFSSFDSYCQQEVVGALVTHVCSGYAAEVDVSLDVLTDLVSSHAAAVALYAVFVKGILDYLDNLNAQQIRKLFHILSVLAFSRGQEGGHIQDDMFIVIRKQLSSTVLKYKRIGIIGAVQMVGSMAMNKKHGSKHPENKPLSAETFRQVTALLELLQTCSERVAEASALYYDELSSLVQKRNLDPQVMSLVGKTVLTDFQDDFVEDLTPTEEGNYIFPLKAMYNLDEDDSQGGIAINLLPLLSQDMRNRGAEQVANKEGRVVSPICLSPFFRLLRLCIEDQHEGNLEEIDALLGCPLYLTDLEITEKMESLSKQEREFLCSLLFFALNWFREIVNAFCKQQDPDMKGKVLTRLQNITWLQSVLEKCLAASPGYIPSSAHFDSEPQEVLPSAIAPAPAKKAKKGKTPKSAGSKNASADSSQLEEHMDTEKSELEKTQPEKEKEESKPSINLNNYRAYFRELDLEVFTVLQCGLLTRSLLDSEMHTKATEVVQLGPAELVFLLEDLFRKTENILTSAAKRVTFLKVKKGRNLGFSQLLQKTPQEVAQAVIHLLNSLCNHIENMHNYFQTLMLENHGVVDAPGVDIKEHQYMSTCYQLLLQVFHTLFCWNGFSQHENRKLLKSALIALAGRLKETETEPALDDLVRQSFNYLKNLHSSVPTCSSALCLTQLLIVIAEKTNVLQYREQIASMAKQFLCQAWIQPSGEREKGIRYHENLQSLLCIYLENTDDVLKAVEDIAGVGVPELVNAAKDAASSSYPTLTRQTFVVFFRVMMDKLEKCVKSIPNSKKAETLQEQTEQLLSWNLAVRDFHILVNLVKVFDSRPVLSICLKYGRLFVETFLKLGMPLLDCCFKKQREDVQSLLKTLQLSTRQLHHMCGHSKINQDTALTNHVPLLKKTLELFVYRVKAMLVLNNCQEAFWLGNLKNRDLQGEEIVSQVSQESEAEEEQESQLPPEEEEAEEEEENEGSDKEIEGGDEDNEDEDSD
Put plainly: BLI.

The target in assay [3] is T2, Xenopus laevis StrepII-FANCD2. As to the kind of experiment: BLI.

Among the data in publication PMC7010609 (2020) are Kd and koff values, retold here.

Broadly, the Kd is the free concentration of one partner at which half of the binding sites on the other are occupied at equilibrium, for simple one-to-one binding. In general, koff refers to the first-order rate constant of dissociation.

B1: Xenopus laevis Flag-FANCI wild type S557D; S560D; S566D; S597D; S618D; S630D (protein)
chain: MDQKILSLAAEEQNDGLQSYLQNLKETELSEIITKHAVKGKDCGALLRGVFKGSPCSHDVAVRRRLAVYRHCIQLVESGDLQREVASEIMGLLMLEVHHFPGASLIELANLFADAVKAGTLSNGKSLDLFPTVLTALSSKESLAYGKGELTGEEFKKQLINSLCSSRWDPQSVIFLTSMFRDVSLSAEELQFVVEKVLRMLSKLDLQEMPPLVYQLLLLSAKGSKKNIVEGIITIFNDLDQKQLVQQENSESLDLEDATIPQDQLHHVEGTIILHIVFAIKLDQELGRELLKYLKAGQQGDSSKILCPFSAALLLSVSRIHRFQEQVFDFLKSTILRDYKDLQFHQSSKFLQDLVPQPVCVSSILLETVKNSVYGWDHVTQGLVELGFILMDSFGPKAAFGNKVVELISVHSRTPSQQACQLGSRILLETFKVHEPIRSEILEQVLNRVITKAATPVTHFIDLLSDIVVSAPLILQNSSSKVTEAFDHLSFLPLTTVQGLLKAVQPLLKISMSMRDSLILVLRKAMFSSQIDARKSAVAGFLLLLRNFKVLGSLSSDQCDQAIGADQIQVDVHMRYNAAANEAFCLEILGSLRRCLDQQADVRLMLYEGFYDVLRRNDQLASSVMQTLLDQLKRYYEPEPDLLPPLKLEGCITAQGDHIFLQEPLAHLLCCIHHCLQWYKSSLQQHRNPDEDDDDDDQTGCQQDLNDIMESITRRMIKCDLEDFELDKSADFSLASGVGVKNNIYAVLVMGICEVLIEYNFIIANFSKSKFEDILGLFKCCSKLSDILKEKAAKGRQPGNNKTARSLISMTFVSTLLTALFRDSTRSHEESLSILRANVDFMRYSVCVALQKIQQLEETGVTDGPDGQNSEKMFRSLCEITRVLMWRYTSIPAAAENPGKKDKGKTISLLCLEGLLRVFNTVQQRYPSKIPQFLTALDALGDEDEEGSREINVTEKAAFQIKQFQRSLINQLSGGEDDFNSKEALLLVSILSTLSRLLAPSSQQFVQMLSWTVKICKETNIEDVQFCKGIMNLLFSLHVQFKSPVSVLRELCQDIHGHLGDIDQDIEVEKQSHFATVSLKTAAPTVTLLVLGQAAKVLEEVDWLIIKLKGLLGSEKLSTEDLTQTSNARVPIEKAIILQLGTLLTACHELVQTALPAGSCTDTLLKELAKMYTILTSVVKYYLQICSSHGGQISARLEKLVKLSGSHLTPQCYAFITYVQNIHSESLSLAAEKKKKKKEEALTVTSAKILRDTKPIPNLIFAIEQYEKFLIHLSKKSKVNLMQYMKLSTSRDFRINAATLDAALQEKGSEDEENEPDNEQAVTEEESQEPKKKRRRK
In assay [1], B1 yielded a Kd of 136 nM and a koff of 0.0061 s⁻¹.

B2: Xenopus laevis Flag-FANCI S6D phosphomimic mutant (natural protein)
chain: MDQKILSLAAEEQNDGLQSCLQNLKETELSEIITKHAVKGKDCGALLRGVFKGSPCSHDVAVRRRLAVYRHCIQLVESGDLQREVASEIMGLLMLEVHHFPGASLIELANLFADAVKAGTLSNGKSLDLFPTVLTALSSKESLAYGKGELTGEEFKKQLINSLCSSRWDPQSVIFLTSMFRDVSLSAEELQFVVEKVLRMLSKLDLQEMPPLVYQLLLLSAKGSKKNIVEGIITIFNDLDQKQLVQQENSESLDLEDATIPQDQLHHVEGTIILHIVFAIKLDQELGRELLKYLKAGQQGDTSKILCPFSAALLLSVSRIHRFQEQVFDFLKSTILRGYKDLQFHQSSKFLQDLVPQPVCVSSILLETVKNSVYGWDHVTQGLVELGFILMDSFGPKAAFGNKVVELISVHSRTPSQQACQLGSRILLETFKVHEPIRSEILEQVLNRVITKAATPVTHFIDLLSDIVVSAPLILQNSSSKVTEAFDHLSFLPLTTVQGLLKAVQPLLKISMSMRDSLILVLRKAMFSSQIDARKSAVAGFLLLLRNFKVLGSLSSDQCDQAIGADQIQVDVHMRYNAAANEAFCLEILGSLRRCLDQQADVRLMLYEGFYDVLRRNDQLASSVMQTLLDQLKRYYEPEPDLLPPLKLEGCITAQGDHIFLQEPLAHLLCCIHHCLQWYKSSLQQHRNPDEDDDDDDQTGCQQDLNDIMESITRRMIKCDLEDFELDKSADFSLASGVGVKNNIYAVLVMGICEVLIEYNFIIANFSKSKFEDILGLFKCYSKLSDILKEKAAKGRQPGNNKTARSLISMTFVSTLLTALFRDSTRSHEESLSILRANVDFMRYSVCVALQKIQQLEETGVTDGPDGQNSEKMFRSLCEITRVLMWRYTSIPAAAENPGKKDKGKTISLLCLEGLLRVFNTVQQRYPSKIPQFLTALDALGDEDEEGSREINVTEKAAFQIKQFQRSLINQLSGGEDDFNSKEALLLVSILSTLSRLLAPSSQQFVQMLSWTVKICKETNIEDVQFCKGIMNLLFSLHVQFKSPVSVLRELCQDIHGHLGDIDQDIEVEKQSHFATVSLKTAAPTVTLLVLGQAAKVLEEVDWLIIKLKGLLGSEKLSTEDLTQTSNARVPIEKAIILQLGTLLTACHELVQTALPAGSCTDTLLKELAKMYTILTSVVKYYLQICSSHGGQISARLEKLVKLSGSHLTPQCYAFITYVQNIHSESLSLAAEKKKKKKEEALTVTSAKILRDTKPIPNLIFAIEQYEKFLIHLSKKSKVNLMQYMKLSTSRDFRINAATLDAALQEKGSEDEENEPDNEQAVTEEESQEPKKKRRRK
modifications: Full length assumed, since construct limits are not printed. Flag tag left out. The L homeolog is assumed; if it has no entry or the checks fail, try fanci.S or fanci. Expressed in Hi5 insect cells.
The molecule B2 had an off-rate constant (koff) in assay [2] of 0.0061 s⁻¹. The equilibrium dissociation constant (Kd) in assay [3] came out at 136 nM.
